Experimental data published in publication PMC6349121, “Structural insights into non-covalent ubiquitin activation of the cIAP1-UbcH5B∼ubiquitin complex” (The Journal of Biological Chemistry, 2018).

B1: GST-cIAP1R (cIAP1 RING domain, residues 556-C, with GST) (domain or fragment, human, UniProt Q13490 556-618, looked up)
chain: LSLEEQLRRLQEERTCKVCMDKEVSVVFIPCGHLVVCQECAPSLRKCPICRGIIKGTVRTFLS
notes: pGEX4T1 with a TEV site after GST; the tag is not cleaved in this form; source: E. coli BL21 (DE3) Gold; not shown: GST, N-terminal, kept
B2: cIAP1 RING domain (residues 556-C; cIAP1R) (domain or fragment, human, UniProt Q13490 556-618, looked up)
chain: B1 chain
notes: Homodimer through the RING domain; in the crystal the dimer is generated by crystallographic symmetry; also called cIAP1 RING dimer; not shown: GST, N-terminal, cleaved

Legend:
[1] = molecular target: T1, UbcH5B S22R C85K covalently linked to Ub (UbcH5B_(S22R)–Ub) (human, UniProt P62837 1-147; P0CG47 1-76, S22R | C85K, Lys85 (C85K) in a stable amide linkage to Ub | covalently linked to Lys85 of UbcH5B S22R C85K (amide linkage)); test: SPR; GST-cIAP1R coupled to a CM-5 chip, Biacore T200, 25 °C; analytes diluted in 25 mM Tris-HCl pH 7.6, 150 mM NaCl, 0.1 mg/ml BSA, 1 mM DTT, 0.005% Tween 20; GST alone subtracted; steady-state affinity analysis; conditions: both partners purified
T1 construct: UbcH5B, human Ub-conjugating enzyme (E2); ubiquitin (Ub), human, donor Ub; source: E. coli BL21 (DE3) Gold

[2] = molecular target: T2, UbcH5B C85K covalently linked to Ub (UbcH5B–Ub) (human, UniProt P62837 1-147; P0CG47 1-76, C85K, Lys85 (C85K) in a stable amide linkage to Ub | covalently linked to Lys85 of UbcH5B C85K (amide linkage)); test: as above; conditions: both partners purified
T2 construct: UbcH5B, human Ub-conjugating enzyme (E2); ubiquitin (Ub), human, donor Ub (Ub^D); the model of 6HPR holds residues 1-76; source: E. coli BL21 (DE3) Gold

UbcH5B = molecular target: T3, UbcH5B (human, UniProt P62837 1-147); test: as above; conditions: both partners purified
T3 construct: UbcH5B, human Ub-conjugating enzyme (E2), untagged; also called UbcH5B WT

[3] = molecular target: T1, UbcH5B S22R C85K covalently linked to …; test: SPR; as a1, but UbcH5B–Ub variants diluted in running buffer containing 0.6 mM UbΔGG; GST-cIAP1R coupled to a CM-5 chip, 25 °C; steady-state affinity analysis; conditions: both partners purified
ubiquitin (Ub) = molecular target: T4, ubiquitin (Ub) (human, UniProt P0CG47 1-76); test: crystal structure; cIAP1R, UbcH5B–Ub and Ub mixed at 1:1:1.2 molar ratio; sitting drop, 0.2 M ammonium fluoride, 15% PEG 3350, 19 °C; 1.7 Å; dimer generated by crystallographic symmetry; conditions: both partners purified
T4 construct: ubiquitin (Ub), human; in the model of 6HPR Ub^B is chain B (residues 1-74 seen) and Ub^D chain D (residues 1-76); Free Ub was mixed into the crystallised complex as Ub^B; in the rows on Ub^D it stands for the Ub part of the conjugate m4; also called WT Ub

[4] = molecular target: the molecule itself; test: as above

Row | Binder | Kd [1] | Kd [2] | Kd (UbcH5B) | Kd [3] | binding result (ubiquitin (Ub)) | binding result [4]
1 | B1 | 900 ± 10 nM | 830 ± 50 nM | 223000 ± 4000 nM | 990 ± 50 nM | – | –
2 | B2 | – | – | – | – | binds | binds
